Results: patent US20030092619A1

Molecular target: full length STAT6 (human) (UniProt P42226)
Assay: cell-based or functional assay

full length STAT6 (human), sequence (P42226 2-847): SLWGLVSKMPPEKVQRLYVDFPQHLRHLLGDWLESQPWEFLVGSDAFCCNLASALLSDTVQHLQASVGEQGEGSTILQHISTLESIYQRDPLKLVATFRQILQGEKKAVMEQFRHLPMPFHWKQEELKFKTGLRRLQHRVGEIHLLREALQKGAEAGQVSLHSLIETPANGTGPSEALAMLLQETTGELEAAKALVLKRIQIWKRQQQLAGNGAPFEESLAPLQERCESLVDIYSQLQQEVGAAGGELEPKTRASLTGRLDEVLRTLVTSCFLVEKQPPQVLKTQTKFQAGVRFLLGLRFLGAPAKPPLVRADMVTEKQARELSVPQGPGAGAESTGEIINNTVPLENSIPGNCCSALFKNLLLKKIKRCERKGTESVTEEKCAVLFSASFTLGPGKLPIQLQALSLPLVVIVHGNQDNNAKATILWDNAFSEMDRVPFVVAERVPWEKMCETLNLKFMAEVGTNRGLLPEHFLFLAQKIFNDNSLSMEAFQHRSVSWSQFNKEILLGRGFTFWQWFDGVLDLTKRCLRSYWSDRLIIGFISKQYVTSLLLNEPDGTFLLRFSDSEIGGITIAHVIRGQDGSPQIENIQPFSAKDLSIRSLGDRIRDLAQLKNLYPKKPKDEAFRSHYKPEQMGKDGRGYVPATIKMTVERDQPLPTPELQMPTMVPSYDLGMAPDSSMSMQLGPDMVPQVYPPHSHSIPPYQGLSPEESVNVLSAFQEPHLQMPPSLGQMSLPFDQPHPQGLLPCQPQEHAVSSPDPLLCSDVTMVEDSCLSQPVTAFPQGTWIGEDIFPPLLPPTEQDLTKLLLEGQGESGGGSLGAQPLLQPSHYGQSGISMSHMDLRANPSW

NCoA-1 (nuclear coactivator 1), full length (from UniProt P70365 2-1447)
luciferase reporter with multimerized STAT6 response elements, HepG2 cells, IL-4 induced: < 3 fold
